Data from the supplement of paper PMC9112550, “Optimization of the antimicrobial peptide Bac7 by deep mutational scanning” (BMC Biology, 2022).

test system: Escherichia coli TOP10; assay: shrunken log2 fold change of peptide-encoding DNA abundance (4.5 h post-induction vs induction); higher = less antimicrobial activity (less host growth inhibition); conditions: time post-induction: 4.5 h; library: site-saturation at positions 5, 18, 19, 20
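Further: peptides expressed intracellularly from a pBAD plasmid library in pooled LB shake-flask culture, induced with 0.3% L-arabinose, DNA abundance read by NGS, three biological replicates, DESeq2 with apeglm shrinkage.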

Row | Sequence | shrunken log2 fold change
1 | RRIRPRPPRLPRPRPRPDMCPRP | 0.00204
2 | RRIRKRPPRLPRPRPRPSSWPRP | 0.147
3 | RRIRDRPPRLPRPRPRPPRSPRP | 1.11
4 | RRIRARPPRLPRPRPRPPKDPRP | 1.78
5 | RRIRSRPPRLPRPRPRPYCCPRP | -0.375
6 | RRIRDRPPRLPRPRPRPRNVPRP | 0.0903
7 | RRIRFRPPRLPRPRPRPCENPRP | 0.015
8 | RRIRDRPPRLPRPRPRPLNNPRP | -0.305
9 | RRIRNRPPRLPRPRPRPIIPPRP | -0.0623
10 | RRIRTRPPRLPRPRPRPVPQPRP | 0.00694
11 | RRIRTRPPRLPRPRPRPCMQPRP | 1.86
12 | RRIRERPPRLPRPRPRPDDLPRP | 0.00911
13 | RRIRVRPPRLPRPRPRPDWWPRP | -0.0161
14 | RRIRDRPPRLPRPRPRPSFNPRP | -0.68
15 | RRIRVRPPRLPRPRPRPCWCPRP | 0.0389
16 | RRIRHRPPRLPRPRPRPHFIPRP | -0.499
17 | RRIRSRPPRLPRPRPRPRQMPRP | 0.38
18 | RRIRTRPPRLPRPRPRPELNPRP | 0.195
19 | RRIRHRPPRLPRPRPRPTIIPRP | -0.494
20 | RRIRNRPPRLPRPRPRPKCMPRP | -0.0394
21 | RRIRERPPRLPRPRPRPMCSPRP | -0.00794
22 | RRIRRRPPRLPRPRPRPHSRPRP | 0.163
23 | RRIRYRPPRLPRPRPRPFDAPRP | -0.485
24 | RRIRQRPPRLPRPRPRPRFNPRP | -0.244
25 | RRIRCRPPRLPRPRPRPCRMPRP | -0.317

Row | Sequence | shrunken log2 fold change
26 | RRIRVRPPRLPRPRPRPKTFPRP | -0.0753
27 | RRIRARPPRLPRPRPRPKEDPRP | 0.133
28 | RRIRKRPPRLPRPRPRPLPGPRP | 0.529
29 | RRIRDRPPRLPRPRPRPVMMPRP | -0.168
30 | RRIRIRPPRLPRPRPRPDKFPRP | -0.565
31 | RRIRARPPRLPRPRPRPKWVPRP | 0.222
32 | RRIRPRPPRLPRPRPRPHDKPRP | -0.271
33 | RRIRPRPPRLPRPRPRPFWCPRP | -0.0114
34 | RRIRQRPPRLPRPRPRPQNYPRP | 0.0103
35 | RRIRSRPPRLPRPRPRPKVEPRP | 0.213
36 | RRIRQRPPRLPRPRPRPYMCPRP | -0.184
37 | RRIRLRPPRLPRPRPRPDFWPRP | 0.484
38 | RRIRHRPPRLPRPRPRPLEKPRP | -0.1
39 | RRIRKRPPRLPRPRPRPKEWPRP | 0.222
40 | RRIRLRPPRLPRPRPRPIYFPRP | -0.37
41 | RRIRDRPPRLPRPRPRPYKAPRP | -0.0157
42 | RRIRERPPRLPRPRPRPQDSPRP | -0.222
43 | RRIRRRPPRLPRPRPRPCEYPRP | 0.0177
44 | RRIRKRPPRLPRPRPRPMHTPRP | 0.192
45 | RRIRWRPPRLPRPRPRPNWGPRP | 0.105
46 | RRIRDRPPRLPRPRPRPHHEPRP | 0.0131
47 | RRIRSRPPRLPRPRPRPMYPPRP | -0.124
48 | RRIRFRPPRLPRPRPRPHISPRP | -0.419
49 | RRIRTRPPRLPRPRPRPWRQPRP | 0.0481
50 | RRIRQRPPRLPRPRPRPHMDPRP | -1.07

Row | Sequence | shrunken log2 fold change
51 | RRIRQRPPRLPRPRPRPINCPRP | -0.384
52 | RRIRWRPPRLPRPRPRPVSCPRP | 0.0517
53 | RRIRIRPPRLPRPRPRPQVDPRP | 0.0508
54 | RRIRARPPRLPRPRPRPDREPRP | -0.0167
55 | RRIRIRPPRLPRPRPRPQPQPRP | 0.0386
56 | RRIRYRPPRLPRPRPRPQTLPRP | -0.088
57 | RRIRMRPPRLPRPRPRPPQKPRP | 0.173
58 | RRIRKRPPRLPRPRPRPKRTPRP | 1.7
59 | RRIRSRPPRLPRPRPRPCSTPRP | 0.129
60 | RRIRKRPPRLPRPRPRPRTPPRP | 0.714
61 | RRIRERPPRLPRPRPRPDQPPRP | 0.0454
62 | RRIRLRPPRLPRPRPRPQHAPRP | -0.0395
63 | RRIRGRPPRLPRPRPRPIFLPRP | 0.0935
64 | RRIRRRPPRLPRPRPRPPYSPRP | 0.122
65 | RRIRSRPPRLPRPRPRPGTAPRP | 0.33
66 | RRIRVRPPRLPRPRPRPHKVPRP | -0.331
67 | RRIRDRPPRLPRPRPRPHAMPRP | 0.158
68 | RRIRRRPPRLPRPRPRPCQMPRP | 0.0273
69 | RRIRVRPPRLPRPRPRPKQNPRP | 0.385
70 | RRIRLRPPRLPRPRPRPPWSPRP | 0.259
71 | RRIRLRPPRLPRPRPRPDPMPRP | -0.00264
72 | RRIRARPPRLPRPRPRPPDHPRP | 0.683
73 | RRIRPRPPRLPRPRPRPVCWPRP | 0.533
74 | RRIRKRPPRLPRPRPRPTLSPRP | 0.0214
75 | RRIRNRPPRLPRPRPRPGRLPRP | -0.0294
